For 94 variants, protein stability index results are on record in the supplement of paper PMC10567573.

Sequences and labels used below:
B1: VPS39 (parent)
chain: LRLENNHCHIEESEHVLKKAHKYS
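Note: lentivirally expressed fusions sorted by FACS into six bins by GFP to DsRed ratio, PSI derived from sequencing read proportions per bin multiplied by bin number.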

The variants in the data set derive from B1. As to the kind of experiment: protein stability index of a GFP-peptide fusion (GPS, HEK-293T) (PSI 1-6); higher = more stable. Particulars: c terminus: a fixed tail appended.
Take LRLENNHCHIEESEHVLMKAHKYS [K18M]: the protein stability index is 2.12.

As to LRLENNHCHIEESEHVLDKAHKYS [K18D], the protein stability index stood at 2.31.

LRLENNHCHIEESEHVLPKAHKYS [K18P]: the protein stability index came out at 1.85.

LRLENNHCHIEESEHVLWKAHKYS [K18W]: the protein stability index turned out to be 1.27.

LRLENNHCHIEESEHVLNKAHKYS [K18N]: the protein stability index is 2.6.

In the case of LRLENNHCHIEESEHVLGKAHKYS [K18G], the protein stability index stood at 2.08.

Regarding LRLENNHCHIEESEHVLLKAHKYS [K18L], the protein stability index came out at 1.88.

LRLENNHCHIEESEHVLSKAHKYS [K18S]: the protein stability index stood at 1.91.

For the variant LRLENNHCHIEESEHVLYKAHKYS [K18Y], the protein stability index is 2.39.

On to LRLENNHCHIEESEHVLIKAHKYS [K18I], for which the protein stability index was determined as 2.26.

As to LRLENNHCHIEESEHVLEKAHKYS [K18E], the protein stability index is 1.94.

For LRLENNHCHIEESEHVLAKAHKYS [K18A], the protein stability index stood at 2.42.

Regarding LRLENNHCHIEESEHVLHKAHKYS [K18H], the protein stability index worked out at 2.17.

For the variant LRLENNHCHIEESEHVLQKAHKYS [K18Q], the protein stability index was 2.42.

In the case of LRLENNHCHIEESEHVLTKAHKYS [K18T], the protein stability index is 1.87.

With LRLENNHCHIEESEHVLRKAHKYS [K18R], the protein stability index was determined as 2.21.

Consider LRLENNHCHIEESEHVLVKAHKYS [K18V], for which the protein stability index came to 2.54.

For LRLENNHCHIEESEHVLFKAHKYS [K18F], the protein stability index came out at 2.09.

LRLENNHCHIEESEHVLCKAHKYS [K18C]: the protein stability index came out at 2.02.

Consider LRLENNHCHIEESEHVLKKAHKES [Y23E], for which the protein stability index worked out at 3.12.

For LRLENNHCHIEESEHVLKKAHKQS [Y23Q], the protein stability index came to 2.45.

For LRLENNHCHIEESEHVLKKAHKGS [Y23G], the protein stability index came to 2.75.

In the case of LRLENNHCHIEESEHVLKKAHKAS [Y23A], the protein stability index turned out to be 2.76.

Consider LRLENNHCHIEESEHVLKKAHKRS [Y23R], for which the protein stability index was determined as 2.25.

Turning to LRLENNHCHIEESEHVLKKAHKTS [Y23T], the protein stability index is 2.4.

With LRLENNHCHIEESEHVLKKAHKVS [Y23V], the protein stability index amounted to 2.05.

For the variant LRLENNHCHIEESEHVLKKAHKWS [Y23W], the protein stability index was determined as 1.72.

Consider LRLENNHCHIEESEHVLKKAHKHS [Y23H], for which the protein stability index amounted to 3.13.

Consider LRLENNHCHIEESEHVLKKAHKSS [Y23S], for which the protein stability index is 2.77.

LRLENNHCHIEESEHVLKKAHKLS [Y23L]: the protein stability index came to 2.7.

Turning to LRLENNHCHIEESEHVLKKAHKNS [Y23N], the protein stability index is 3.05.

For LRLENNHCHIEESEHVLKKAHKPS [Y23P], the protein stability index worked out at 2.56.

As for LRLENNHCHIEESEHVLKKAHKKS [Y23K], the protein stability index is 2.21.

As to LRLENNHCHIEESEHVLKKAHKDS [Y23D], the protein stability index came out at 2.15.

On to LRLENNHCHIEESEHVLKKAHKIS [Y23I], for which the protein stability index stood at 3.14.

Turning to LRLENNHCHIEESEHVLKKAHKCS [Y23C], the protein stability index was found to be 2.25.

For the variant LRLENNHCHIEESEHVLKKAHKFS [Y23F], the protein stability index was found to be 2.28.

LRLENNHCHIEESEHVLKKAHKMS [Y23M]: the protein stability index was found to be 2.17.

As for LRLENNHCHIEESEHVLKFAHKYS [K19F], the protein stability index was 1.98.

LRLENNHCHIEESEHVLKRAHKYS [K19R]: the protein stability index is 2.37.

Turning to LRLENNHCHIEESEHVLKNAHKYS [K19N], the protein stability index worked out at 2.39.

For the variant LRLENNHCHIEESEHVLKGAHKYS [K19G], the protein stability index turned out to be 2.21.

On to LRLENNHCHIEESEHVLKCAHKYS [K19C], for which the protein stability index was 2.24.

For LRLENNHCHIEESEHVLKLAHKYS [K19L], the protein stability index came to 1.52.

Take LRLENNHCHIEESEHVLKIAHKYS [K19I]: the protein stability index came out at 2.01.

As to LRLENNHCHIEESEHVLKPAHKYS [K19P], the protein stability index is 2.41.

Take LRLENNHCHIEESEHVLKYAHKYS [K19Y]: the protein stability index came to 2.67.

In the case of LRLENNHCHIEESEHVLKAAHKYS [K19A], the protein stability index was 2.3.

Turning to LRLENNHCHIEESEHVLKDAHKYS [K19D], the protein stability index worked out at 2.59.

In the case of LRLENNHCHIEESEHVLKMAHKYS [K19M], the protein stability index is 2.52.

As to LRLENNHCHIEESEHVLKVAHKYS [K19V], the protein stability index was 2.4.

Take LRLENNHCHIEESEHVLKQAHKYS [K19Q]: the protein stability index was 2.51.

Regarding LRLENNHCHIEESEHVLKWAHKYS [K19W], the protein stability index amounted to 1.34.

LRLENNHCHIEESEHVLKTAHKYS [K19T]: the protein stability index was 2.2.

On to LRLENNHCHIEESEHVLKSAHKYS [K19S], for which the protein stability index came out at 2.1.

As for LRLENNHCHIEESEHVLKEAHKYS [K19E], the protein stability index was 2.45.

With LRLENNHCHIEESEHVLKHAHKYS [K19H], the protein stability index was 1.91.

For LRLENNHCHIEESEHVLKKARKYS [H21R], the protein stability index amounted to 2.

As to LRLENNHCHIEESEHVLKKASKYS [H21S], the protein stability index was determined as 2.29.

Turning to LRLENNHCHIEESEHVLKKAKKYS [H21K], the protein stability index was found to be 2.4.

Take LRLENNHCHIEESEHVLKKAQKYS [H21Q]: the protein stability index came out at 2.62.

As to LRLENNHCHIEESEHVLKKAAKYS [H21A], the protein stability index amounted to 3.18.

In the case of LRLENNHCHIEESEHVLKKAMKYS [H21M], the protein stability index came to 1.81.

On to LRLENNHCHIEESEHVLKKAEKYS [H21E], for which the protein stability index came to 2.78.

For the variant LRLENNHCHIEESEHVLKKAFKYS [H21F], the protein stability index was determined as 2.52.

With LRLENNHCHIEESEHVLKKAIKYS [H21I], the protein stability index worked out at 1.38.

LRLENNHCHIEESEHVLKKAPKYS [H21P]: the protein stability index worked out at 1.97.

For LRLENNHCHIEESEHVLKKANKYS [H21N], the protein stability index was 2.68.

Take LRLENNHCHIEESEHVLKKAGKYS [H21G]: the protein stability index was 2.5.

As for LRLENNHCHIEESEHVLKKACKYS [H21C], the protein stability index is 2.63.

As for LRLENNHCHIEESEHVLKKAVKYS [H21V], the protein stability index stood at 3.04.

In the case of LRLENNHCHIEESEHVLKKALKYS [H21L], the protein stability index was determined as 1.9.

On to LRLENNHCHIEESEHVLKKAWKYS [H21W], for which the protein stability index turned out to be 2.12.

In the case of LRLENNHCHIEESEHVLKKAYKYS [H21Y], the protein stability index is 2.25.

Turning to LRLENNHCHIEESEHVLKKADKYS [H21D], the protein stability index was 2.73.

Consider LRLENNHCHIEESEHVLKKATKYS [H21T], for which the protein stability index is 2.27.

As for LRLENNHCHIEESEHVLKKKHKYS [A20K], the protein stability index was determined as 2.13.

With LRLENNHCHIEESEHVLKKQHKYS [A20Q], the protein stability index is 1.45.

As to LRLENNHCHIEESEHVLKKVHKYS [A20V], the protein stability index worked out at 2.52.

With LRLENNHCHIEESEHVLKKEHKYS [A20E], the protein stability index was 3.06.

LRLENNHCHIEESEHVLKKWHKYS [A20W]: the protein stability index amounted to 2.25.

As for LRLENNHCHIEESEHVLKKGHKYS [A20G], the protein stability index was determined as 2.73.

Consider LRLENNHCHIEESEHVLKKNHKYS [A20N], for which the protein stability index came to 2.38.

With LRLENNHCHIEESEHVLKKSHKYS [A20S], the protein stability index is 2.19.

As for LRLENNHCHIEESEHVLKKDHKYS [A20D], the protein stability index was 2.73.

Consider LRLENNHCHIEESEHVLKKRHKYS [A20R], for which the protein stability index is 2.11.

For the variant LRLENNHCHIEESEHVLKKFHKYS [A20F], the protein stability index is 2.24.

Turning to LRLENNHCHIEESEHVLKKLHKYS [A20L], the protein stability index turned out to be 1.71.

As for LRLENNHCHIEESEHVLKKIHKYS [A20I], the protein stability index came to 1.61.

On to LRLENNHCHIEESEHVLKKHHKYS [A20H], for which the protein stability index worked out at 2.3.

As to LRLENNHCHIEESEHVLKKTHKYS [A20T], the protein stability index is 2.43.

As for LRLENNHCHIEESEHVLKKMHKYS [A20M], the protein stability index turned out to be 1.98.

LRLENNHCHIEESEHVLKKPHKYS [A20P]: the protein stability index amounted to 2.23.

LRLENNHCHIEESEHVLKKYHKYS [A20Y]: the protein stability index amounted to 1.92.
